Paper PMC2910063
Like-named read-outs stand apart in the source and are kept apart here.

Experiments:
[1] = target: T1, FoxM1-DBD (FoxM1C 222-360) (UniProt Q08050 222-360); assay: competition fluorescence anisotropy
T1 sequence: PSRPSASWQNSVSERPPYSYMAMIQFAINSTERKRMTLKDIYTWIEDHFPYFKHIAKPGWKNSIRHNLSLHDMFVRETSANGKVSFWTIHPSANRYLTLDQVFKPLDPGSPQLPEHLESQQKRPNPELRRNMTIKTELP

[2] = target: T1, FoxM1-DBD (FoxM1C 222-360); assay: fluorescence anisotropy
[3] = target: T1, FoxM1-DBD (FoxM1C 222-360); assay: fluorescence anisotropy; remark: listed apart in the source
[4] = target: T2, FoxM1-DBD (FoxM1C 222-360), crystal (UniProt Q08050 222-360); assay: X-ray crystallography 2.2 A
T2 sequence: T1 sequence

B1: 1x (dsDNA)
DNA 1: CCGATTGTTTAGCCCGTGCC
DNA 2: GGCACGGGCTAAACAATCGG
IC50 [1]: 7 µM

B2: 11 bp consensus, TAMRA (dsDNA)
DNA 1: CCATAAACAAC
DNA 2: GTTGTTTATGG
Kd [2]: 7.5 ± 0.8 µM
Kd [3]: 7 ± 0.3 µM

B3: Fm1-2x-19nt-aa/tt (dsDNA)
DNA 1: AAATTGTTTATAAACAGCCCG
DNA 2: TTCGGGCTGTTTATAAACAAT
binding result [4]: binds
